Target: ZmEREB92 (Zea mays, UniProt B6SIZ8 1-233)
Test: EMSA; 200x unlabeled probe used as competitor; EMSA: 0.2 pmol biotin probe with ZmEREB92-His, 30 min at 28 °C, 6.5% native PAGE, chemiluminescence kit (Beyotime); buffer, salt and pH not given
Settings: protein: recombinant; tags: His-tag (C-terminal as stated; pET32a vector); label: biotin; blunt

ZmEREB92, sequence (B6SIZ8 entry or part of it): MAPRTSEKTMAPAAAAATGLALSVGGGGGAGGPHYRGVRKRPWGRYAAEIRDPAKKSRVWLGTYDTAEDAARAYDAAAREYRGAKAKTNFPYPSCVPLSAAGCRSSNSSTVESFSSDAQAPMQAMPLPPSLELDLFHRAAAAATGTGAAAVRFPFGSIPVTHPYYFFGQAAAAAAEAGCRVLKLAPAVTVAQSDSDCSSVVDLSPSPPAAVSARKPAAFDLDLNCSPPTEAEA

Binder	binding result
pAMYa2-C (dsDNA) DNA 1: TCGTCGTCTCGCCGCCGCCGCCGCCGCCGCAACGGGTCT DNA 2: AGACCCGTTGCGGCGGCGGCGGCGGCGGCGAGACGACGA	binds
pAMYa2-A (dsDNA) DNA 1: TCAAGAATTTAAGGCGGCGAAAGCCGAC DNA 2: GTCGGCTTTCGCCGCCTTAAATTCTTGA	binds

Source: article PMC10691696, “ZmEREB92 plays a negative role in seed germination by regulating ethylene signaling and starch mobilization in maize”
